These results are taken from paper PMC11855606.

Experiment [1] addresses growth hormone receptor a (ghra) of Cynoglossus semilaevis, mScarlet-I fusion (pcDNA3.1-S-ghra) (Cynoglossus semilaevis). The experiment can be described thus: FRET or BRET; acceptor bleaching FRET in HEK 293T cells co-transfected with the mNeonGreen-ligand and mScarlet-I-receptor plasmids at a 1:2 ratio, 48 h after transfection, Nikon A1R HD25 confocal microscope; FRETeff = (Dpost - Dpre)/Dpost. (In general: Bioluminescence resonance energy transfer reports proximity on the nanometre scale.)

Experiment [2] addresses growth hormone receptor b (ghrb) of Cynoglossus semilaevis, mScarlet-I fusion (pcDNA3.1-S-ghrb) (Cynoglossus semilaevis). The experiment is described as above.

Sequence of growth hormone receptor a (ghra) of Cynoglossus semilaevis, mScarlet-I fusion (pcDNA3.1-S-ghra) (Cynoglossus semilaevis) (main, as listed by the source): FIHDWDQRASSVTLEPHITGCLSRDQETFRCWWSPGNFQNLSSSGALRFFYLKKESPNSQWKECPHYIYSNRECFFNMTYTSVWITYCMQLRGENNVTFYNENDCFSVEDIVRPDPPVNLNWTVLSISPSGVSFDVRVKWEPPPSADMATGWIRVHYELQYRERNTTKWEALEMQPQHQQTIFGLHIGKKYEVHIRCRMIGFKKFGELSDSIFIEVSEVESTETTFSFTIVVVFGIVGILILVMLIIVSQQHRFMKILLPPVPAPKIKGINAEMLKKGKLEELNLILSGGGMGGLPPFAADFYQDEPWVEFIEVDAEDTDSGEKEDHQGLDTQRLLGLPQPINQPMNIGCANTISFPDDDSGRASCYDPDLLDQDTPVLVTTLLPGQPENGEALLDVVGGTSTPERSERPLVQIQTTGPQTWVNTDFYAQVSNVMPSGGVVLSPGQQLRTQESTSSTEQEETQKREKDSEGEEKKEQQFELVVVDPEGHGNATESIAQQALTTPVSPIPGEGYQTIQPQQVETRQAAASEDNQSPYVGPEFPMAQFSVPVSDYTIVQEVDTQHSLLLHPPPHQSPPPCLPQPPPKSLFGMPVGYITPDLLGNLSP
Sequence of growth hormone receptor b (ghrb) of Cynoglossus semilaevis, mScarlet-I fusion (pcDNA3.1-S-ghrb) (Cynoglossus semilaevis) (main, as listed by the source): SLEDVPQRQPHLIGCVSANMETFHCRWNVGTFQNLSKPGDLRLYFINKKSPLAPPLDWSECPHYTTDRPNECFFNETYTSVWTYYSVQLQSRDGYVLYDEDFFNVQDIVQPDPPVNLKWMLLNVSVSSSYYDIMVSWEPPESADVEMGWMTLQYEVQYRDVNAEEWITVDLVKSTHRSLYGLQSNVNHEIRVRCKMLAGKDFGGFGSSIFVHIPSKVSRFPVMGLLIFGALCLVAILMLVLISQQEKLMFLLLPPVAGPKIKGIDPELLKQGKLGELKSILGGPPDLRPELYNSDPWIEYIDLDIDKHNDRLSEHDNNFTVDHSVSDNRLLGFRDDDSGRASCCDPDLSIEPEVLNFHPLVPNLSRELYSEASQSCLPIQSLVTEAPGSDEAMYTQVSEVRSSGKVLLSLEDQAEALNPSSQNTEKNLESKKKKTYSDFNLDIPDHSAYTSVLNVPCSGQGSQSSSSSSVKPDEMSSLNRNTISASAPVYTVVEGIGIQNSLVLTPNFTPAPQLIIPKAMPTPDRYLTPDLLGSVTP

Take “growth hormone (gh) of Cynoglossus semilaevis, mNeonGreen fusion (pcDNA3.1-N-gh) (ligand)”: the FRET efficiency was 0.0534 in experiment [1] and 0.036 in experiment [2].

In the case of “somatolactin (sl) of Cynoglossus semilaevis, mNeonGreen fusion (pcDNA3.1-N-sl) (ligand)”, in experiment [1], the FRET efficiency was 0.0509.
